This note sets out measurements from patent US20120052007A1, “PERIPHERAL BLOOD SPARC BINDING ANTIBODIES AND USES THEREOF” (ABRAXIS BIOSCIENCE, LLC, priority 2010, published 2012).

In general, % Inhibition refers to the relative decrease from the control value, in per cent. Read a low % Inhibition as a weak effect.

The test system of one series is PC3 (prostate). The experiment in a line: PC3 prostate cancer xenograft. To be noted: nab-paclitaxel 10 mg/kg, P<0.001 (FIG. 24D). The class given is in vivo, mice. Here is the method: (§1) Control animals for each xenograft were administered PBS. […] Animal weights were measured twice weekly.
(§2) These findings were further confirmed in the MDA-MB-231 breast cancer xenografts (FIG. 24C) and PC3 prostate cancer xenografts (FIG. 24D). […] In these experiments, nab-paclitaxel was dosed sub-optimally at 10 mg/kg, daily for five cycles.

The next series has as its system HT29 (colon). The source says: Female and male athymic NCr-nu mice between 5 and 6 weeks of age weighing approximately 20 g were purchased from Harlan, Inc. (Madison, Wis., USA). Human cancer cells HT29 (colon), PC3 (prostate), and MDA-MB-231 (breast) were propagated in cell culture and implanted subcutaneously at one million cells per flank of female (for MDA-MB-231 and HT29) or male (for PC3 prostate tumor) nude mice and allowed to grow to approximately 60-100 mm^3 before treatment was initiated. Treatments included 5-fluorouracil (5FU), docetaxel (Taxotere®), albumin-bound paclitaxel (nab-paclitaxel), nab-paclitaxel plus suntinib malate (Sutent®), or nab-paclitaxel plus bevacizumab (Avastin®) with or without exogenously administered SPARC). Control animals for each xenograft were administered PBS. The longest (length) and shortest (width) tumor diameters (millimeter) and tumor depth were measured twice weekly. The tumor volume was calculated with the formula: tumor volume (mm3)=width×length×depth. Tumor growth inhibition (TGI) was defined as the percentage of tumor volume reduction compared with the control group at the time of euthanasia for the control animals. Tumor doubling time was defined as the time required for the tumor volume to double […]. Animal weights were measured twice weekly. Statistical analysis was performed using the Prism program (GraphPad, San Diego, Calif., USA). Analysis of variance (ANOVA) statistic was used to compare tumor growth curves.

Series [1] deals with endothelial cell tubule formation. The experiment in a line: TCS Cellworks AngioKit tubule formation assay. The class given is cell-based, human. To be noted: 11 days. The source says: Next, the effect of SPARC on tubule formation was examined using the TCS cellworks human Angiokit model kit (TCS-ZHA-1000, TCS Cell Works Buckingham, UK). In this assay, the endothelial cells initially form small islands within the culture matrix. They subsequently begin to proliferate and then enter a migratory phase during which they move through the matrix to form threadlike tubule structures. These gradually join up (by 9-11 days) to form a network of anastomosing tubules which closely resembles a capillary bed.
24-well pre-seeded endothelial cell tissue culture plates containing early stage co-cultures (day 2-3) were used according to manufacturer's recommendations (TCS Cell Works, Buckingham, UK). The cultures were incubated at 37° C./5% CO2 for 11 days. Media on the cultures was changed with added test and control compounds on days 4, 7 and 9 after initial treatment, followed by fixation with 70% ethanol on day 11. Fixed cultures were subsequently stained as follows: Primary rabbit anti-CD31 antibody (Thermo Scientific) was diluted to a final concentration of 2 μg/mL in PBS/1% BSA blocking buffer. Then, 0.5 mL of diluted anti-CD31 antibody was added to each well and incubated for 1 h at 37° C. […]
The number and lengths of tubules formed were then evaluated by light microscopy. […] Total vessel number, total tubule area and the number of branch points can be similarly determined.

The test system of a further series is MDA-MB-231 (breast). The experiment in a line: MDA-MB-231 breast cancer xenograft. The class given is in vivo, mice. As to conditions: MDA-MB-231 xenograft, nab-paclitaxel 10 mg/kg, P<0.001 (FIG. 24C). Here is the method:
as §1, §2

In a further series the test system is MDA-MB-435-Luc+. The experiment in a line: MDA-MB-435-Luc+ orthotopic metastatic model. The class given is in vivo, mice. Here is the method: MDA-MB-435-Luc+ were implanted orthotopic in mammary fat pad (MFP) at 4×10^6 cells in 50% Matrigel and allowed to reach average tumor volume of 180 mm^3 before treatment. Treatments were: 2 cycles of 10 mg/kg nab-paclitaxel, 4 mg/kg SPARC, and bevacizumab biweekly. At appropriate time interval, the following organs were harvested for quantitation of metastasis: Proximal lymph nodes, contralateral lymph nodes, lungs, liver and brain. Statistical tests used included t-test and Mann Whitney-U.
Mice were monitored 2-3 times a week and tumor growth was recorded. Mice were sorted when tumor volumes reached 180 mm^3, and the first cycle of treatment was administered. Seven rest days were given between the first and second cycle. Bevacizumab and SPARC were continually administered during the rest period. Weight was measured periodically throughout the study to assess toxic effects from the therapy.
The following dosing schedules were followed: Control (Group 1); 10 mg/kg nab-paclitaxel daily for 3 to 5 cycles (Group 2); 4 mg/kg soluble SPARC (Bio 1) injected i.v. biweekly (Group 3); and 10 mg/kg nab-paclitaxel daily for two to five cycles and 4 mg/kg SPARC-biweekly (Group 4).
Total metastatic burden was also calculated. It is presented as measured luciferase activity in tissue extracts expressed in RLU normalized per mg protein. All contralateral lymph nodes were negative for all groups. There were a few incidences of metastasis occurred in the proximal lymph node, liver and brain. […] Liver metastasis occurred somewhat frequently in the both control and SPARC groups (present in 3 mice in each group). There was also one control mouse that had brain metastasis.

The subject of series [2] is recombinant human SPARC protein. The experiment in a line: Tube Formation Assay (AngioKit) with SPARC and SPARC binding antibodies. The class given is cell-based. To be noted: 10 μg/mL recombinant human SPARC in the culture media. Here is the method: This assay was performed using the TCS Cellworks human AngioKit model kit (TCS-ZHA-1000, TCS Cell Works, Buckingham, UK) as described in Example 10 above. The media contained 10 μg/mL recombinant human SPARC protein. The media also contained 300 μg/mL of one of the above prepared mouse SPARC binding monoclonal antibodies (Imm12, Imm14, mHTI), or a control (mouse IgG).
To examine the effect of SPARC on tubule formation, and interference with that function by SPARC binding monoclonal antibodies, the number of tubules formed and their length was evaluated by light microscopy.

For series [3], the system named is human umbilical cord vein endothelial cells (HUVEC). The experiment in a line: HUVEC bead sprouting angiogenesis assay. The class given is cell-based. To be noted: 5 days. On the procedure:
First, the effect of SPARC on sprouting was studied in an in vitro angiogenesis model system that was prepared using human umbilical cord vein endothelial cells (HUVEC) as described by Nakatsu et al (Methods Enzymol. 443:65-82 (2008)). Low passage HUVEC grown in M199 media supplemented with 10% FBS (Gibco, Carlsbad, Calif.) were switched to EGM-2 media (Clonetics, Walkersville, Md.) 2 days before beading. Cytodex 3 microcarrier beads (Amersham Pharmacia Biotech, Piscataway, N.J.) were hydrated and washed with PBS (pH 7.4). 1×10^6 HUVEC cells were incubated with 2500 hydrated and sterilized beads in EGM-2 medium for 4 hours at 37° C. for coating. The coated beads were next embedded in 2 mg/mL fibrinogen in PBS with 0.15 units/mL aprotinin at a concentration of 500 beads/mL. Next, 0.625 units/mL thrombin was added and 0.5 mL of the mixture was added to each well of a 24 well plate. The solution was allowed to clot at RT for 5 minutes and 37° C. for another 15 min. After clotting 20,000 lung fibroblast cells in EGM-2 media were seeded in each well. Either 1, 10 or 100 μg/mL BioI SPARC protein in PBS, or PBS without protein was added to the growth medium and cultures were maintained for 5 days until sprouting was evaluated by light microscopy. The number of tubes formed/bead and the morphology of sprouting HUVEC cells in the cultures were determined using image pro software (Media Cybernetics, Bethesda, Md.).

B1: SPARC: recombinant wild-type human SPARC (BIO1), exogenously administered (protein)
chain: APQQEALPDETEVVEETVAEVTEVSVGANPVQVEVGEFDDGAEETEEEVVAENPCQNHHCKHGKVCELDENNTPMCVCQDPTSCPAPIGEFEKVCSNDNKTFDSSCHFFATKCTLEGTKKGHKLHLDYIGPCKYIPPCLDSELTEFPLRMRDWLKNVLVTLYERDEDNNLLTEKQKLRVKKIHENEKRLEAGDHPVELLARDFEKNYNMYIFPVHWQFGQLDQHPIDGYLSHTELAPLRAPLIPMEHCTTRFFETCDLDNDKYIALDEWAGCFGIKQKDIDKDLVI
Regarding B1, the “effect of SPARC administration on antitumor effects of nab-paclitaxel and bevacizumab” value in the series with PC3 (prostate) is reported as “significantly inhibited”. Also, the “impact of SPARC treatment on the nab-paclitaxel/bevacizumab combination” value with HT29 (colon) (HT29 xenograft (FIG. 24B)) was “minimal negative impact”. Also, the “Tumor growth inhibition (TGI)” value in the series with HT29 (colon) (HT29 xenograft, versus control group at euthanasia of control animals) came out at 35.4%. Besides, the “angiogenic activity (tubule formation)” value in series [1] (high concentration of SPARC (100 μg/mL)) was “significantly inhibited angiogenesis”; in series [1] (low concentrations of SPARC (1 and 10 μg/mL)), “stimulate angiogenesis”. Moreover, the “effect of SPARC administration on antitumor effects of nab-paclitaxel and suntinib” value in the series with MDA-MB-231 (breast) is on record as “significantly inhibited”. Further, the tumor growth rate in the series with MDA-MB-435-Luc+ (MDA-MB-435-Luc+ mammary fat pad tumors) amounted to 23.16±4.38 mm3/day. In the series on MDA-MB-435-Luc+ (in 63 days), the average tumor volume stood at 1765 mm3. In the series with MDA-MB-435-Luc+ (luciferase activity in lung tissue extracts), the “lung metastatic burden, average RLU/mg total protein” value turned out to be 31630±10820 RLU/mg total protein. Further, in the series on MDA-MB-435-Luc+ (mouse, in vivo), the “mice positive for lung metastasis” value was 9 of 9. Besides, the “mice with liver metastasis” value with MDA-MB-435-Luc+ (mouse, in vivo) was found to be 3 mice. In addition, the “Tumor Volume on day 56” value in the series on MDA-MB-435-Luc+ (mouse, in vivo, in mm³ (unit assumed)) is on record as 1524. The “% Inhibition” value with MDA-MB-435-Luc+ (tumor volume on day 56) was found to be 35%. The tubule formation entry in series [2] is on record as “formation of numerous long tubules”. The “seeded HUVEC/beads that had developed sprouts” value in series [3] (1 μg/mL SPARC) is reported as “less than 50%”. Moreover, the average sprouts/bead came out at 0.9 sprouts/bead in series [3] (10 μg/mL SPARC) and 1.9 sprouts/bead in series [3] (100 μg/mL SPARC).
